The test has as its target T1, GST-tagged mature full-length GET3b (GST-Get3b) (Arabidopsis thaliana, UniProt A1L4Y1 68-411).
T1 construct: The results say 'GET3B C-terminally fused to GST'; The name GST-Get3b and the vector pGex-4T-3 fit GST at the N-terminus; also called AtGET3B; source: E. coli Rosetta2(DE3), purified (glutathione-sepharose); not shown: GST, N-terminal, kept
T1 sequence (looked up): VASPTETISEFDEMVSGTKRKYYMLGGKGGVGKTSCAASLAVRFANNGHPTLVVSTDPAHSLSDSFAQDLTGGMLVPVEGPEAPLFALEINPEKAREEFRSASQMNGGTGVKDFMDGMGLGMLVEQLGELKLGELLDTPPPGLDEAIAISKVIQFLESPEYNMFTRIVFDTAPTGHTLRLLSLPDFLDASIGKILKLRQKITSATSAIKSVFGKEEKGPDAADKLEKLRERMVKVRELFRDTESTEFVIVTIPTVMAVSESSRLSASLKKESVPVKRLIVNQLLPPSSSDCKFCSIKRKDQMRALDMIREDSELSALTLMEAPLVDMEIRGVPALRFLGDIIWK
Nature of the test: pull-down; 50 μg GST-Get3b (or GST) with 20 μg Alb3C-His or Alb4C-His in 120 μl 1x PBS, 10 min at room temperature; held on glutathione resin 30 min, washed with 5 ml PBS, eluted with 10 mM reduced glutathione; immunoblot with antibodies against Alb3, Alb4 or GST. The following applies: both partners purified. A general note: A western blot detects proteins with antibodies after separation by electrophoresis.

B1: His-tagged C-terminal region of ALB3 (Alb3C-His) (domain or fragment, Arabidopsis thaliana, UniProt Q8LBP4 350-462, looked up)
chain: VYLRKLGGAKPNMDENASKIISAGRAKRSIAQPDDAGERFRQLKEQEKRSKKNKAVAKDTVELVEESQSESEEGSDDEEEEAREGALASSTTSKPLPEVGQRRSKRSKRKRTV
notes: ALB3 of Arabidopsis thaliana, stromal C-terminal region, aa 350-462; also called Alb3-His; source: E. coli Rosetta2(DE3), purified (nickel-nitrilotriacetic acid); not shown: His tag, C-terminal, kept
For the molecule B1, the binding result is reported as “binds”.

B2: His-tagged C-terminal region of ALB4 (Alb4C-His) (domain or fragment, Arabidopsis thaliana, UniProt Q9FYL3 334-499, looked up)
chain: VWLQKYGGAKNPVEKFTNLVTKEDKTQQIEKSFSEPLVQKSVSELKIPREKGGEKVTPECPKPGERFRLLKEQEAKRRREKEERQKAEAALSNQNTDKAHEQDEKSDTAIVAEDDKKTELSAVDETSDGTVAVNGKPSIQKDETTNGTFGIGHDTEQQHSHETEKR
notes: ALB4 (STIC1) of Arabidopsis thaliana, stromal C-terminal region, aa 334-499; source: E. coli Rosetta2(DE3), purified (nickel-nitrilotriacetic acid); not shown: His tag, C-terminal, kept
Regarding B2, the binding result is given as “binds”.

Values taken from paper PMC12040988, “GET3B is involved in chloroplast biogenesis and interacts with the thylakoidal ALB3 and ALB4 insertases” (Plant Cell Reports, 2025).
